US20160060320A1 (UNIVERSITY OF COPENHAGEN, published 2016)
Ends that are not written are not given here.

B1: NPY23-35 (peptide)
peptide: ALRHYINLITRQR
B2: NPY13-35 (peptide)
peptide: PAEDMARYYSALRHYINLITRQR
B3: NPY21-35 ala21 (peptide)
peptide: ASALRHYINLITRQR
B4: NPY22-35 (peptide)
peptide: SALRHYINLITRQR
B5: NPY27-36 (peptide)
peptide: YINLITRQRY-NH2
B6: NPY21-36 (peptide)
peptide: YSALRHYINLITRQRY-NH2
B7: Neuropeptide Y (NPY; NPY1-36; full-length NPY) (peptide)
peptide: not shown
modifications: Tyr36 amidated
B8: NPY24-35 (peptide)
peptide: LRHYINLITRQR
B9: NPY31-36 (peptide)
peptide: ITRQRY-NH2
modifications: also: Tyr36 (pos 6): amidated per mods, acetylation
B10: NPY3-35 reversed sequence (peptide)
peptide: RQRTILNIYHRLASYYRAMDEAPADEGPNDPKS
B11: NPY21-35 (peptide)
peptide: YSALRHYINLITRQR
B12: NPY21-34 (peptide)
peptide: YSALRHYINLITRQ
B13: NPY25-36 (peptide)
peptide: RHYINLITRQRY-NH2
B14: NPY23-36 (peptide)
peptide: ALRHYINLITRQRY-NH2
B15: NPY23-36 ala36 (peptide)
peptide: ALRHYINLITRQRA
modifications: ends and bridges not checked
B16: NPY1-20 (peptide)
peptide: YPSKPDNPGEDAPAEDMARY

target: NCAM on rat hippocampal neurons (rat, UniProt P13596 20-858); assay: cell-based or functional assay
Sequence (P13596 20-858): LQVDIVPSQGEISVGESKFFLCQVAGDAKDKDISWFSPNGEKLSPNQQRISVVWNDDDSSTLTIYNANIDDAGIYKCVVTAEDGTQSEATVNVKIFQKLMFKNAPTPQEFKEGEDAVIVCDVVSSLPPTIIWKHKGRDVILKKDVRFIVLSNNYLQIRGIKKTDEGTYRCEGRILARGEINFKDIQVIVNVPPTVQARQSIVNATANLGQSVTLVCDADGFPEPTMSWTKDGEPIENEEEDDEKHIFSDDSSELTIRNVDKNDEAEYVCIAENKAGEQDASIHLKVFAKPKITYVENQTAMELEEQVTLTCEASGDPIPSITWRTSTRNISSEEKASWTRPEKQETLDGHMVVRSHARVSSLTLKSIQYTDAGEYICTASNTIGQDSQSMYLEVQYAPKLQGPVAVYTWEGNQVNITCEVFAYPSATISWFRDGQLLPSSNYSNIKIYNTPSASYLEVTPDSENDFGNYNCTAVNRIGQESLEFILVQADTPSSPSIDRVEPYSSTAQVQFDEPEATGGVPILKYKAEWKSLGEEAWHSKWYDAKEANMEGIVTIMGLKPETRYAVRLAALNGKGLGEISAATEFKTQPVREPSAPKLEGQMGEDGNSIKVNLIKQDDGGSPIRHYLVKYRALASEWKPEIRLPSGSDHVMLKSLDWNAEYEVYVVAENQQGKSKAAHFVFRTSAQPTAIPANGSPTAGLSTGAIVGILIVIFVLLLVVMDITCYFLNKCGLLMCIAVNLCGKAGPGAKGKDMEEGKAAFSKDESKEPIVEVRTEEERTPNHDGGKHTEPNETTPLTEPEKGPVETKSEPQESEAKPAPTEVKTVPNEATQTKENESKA

Binder	Neuritogenic effect, 1 µM NPY fragment (% of control)	Neuritogenic effect, 3 µM NPY fragment (% of control)
B1	96.2 % of control	104 % of control
B2	174 % of control	305 % of control
B3	95.4 % of control	94.1 % of control
B4	104 % of control	91.4 % of control
B5	107 % of control	99.1 % of control
B6	108 % of control	186 % of control
B7	166 % of control	180 % of control
B8	96.9 % of control	103 % of control
B9	100 % of control	91.8 % of control
B10	110 % of control	285 % of control
B11	154 % of control	233 % of control
B12	87.7 % of control	97.5 % of control
B13	95.9 % of control	96.1 % of control
B14	107 % of control	156 % of control
B15	89.1 % of control	91.7 % of control
B16	97.8 % of control	99.1 % of control
